Our source for the potential values is patent US11385226.

This assay concerns the target recombinant Human IL-8 (BD Pharmingen cat #554609) (human) (UniProt P10145). Kind of assay: sandwich immunoassay on Capture Antibody 1 magnetic beads; potentiometric read-out of bound glucose oxidase conjugate after adding glucose; no potential without IL-8.

recombinant Human IL-8 (BD Pharmingen cat #554609) (human), sequence (P10145 28-99 limits assumed): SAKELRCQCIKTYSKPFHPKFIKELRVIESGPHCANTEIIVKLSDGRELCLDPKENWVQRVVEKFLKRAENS
Capture Antibody 2, an anti-Mouse α-Human IL-8 Monoclonal Antibody (for ICC, BD Pharmingen cat #550419), conjugated to Glucose Oxidase from Aspergillus niger, sequence (P13006 23-605): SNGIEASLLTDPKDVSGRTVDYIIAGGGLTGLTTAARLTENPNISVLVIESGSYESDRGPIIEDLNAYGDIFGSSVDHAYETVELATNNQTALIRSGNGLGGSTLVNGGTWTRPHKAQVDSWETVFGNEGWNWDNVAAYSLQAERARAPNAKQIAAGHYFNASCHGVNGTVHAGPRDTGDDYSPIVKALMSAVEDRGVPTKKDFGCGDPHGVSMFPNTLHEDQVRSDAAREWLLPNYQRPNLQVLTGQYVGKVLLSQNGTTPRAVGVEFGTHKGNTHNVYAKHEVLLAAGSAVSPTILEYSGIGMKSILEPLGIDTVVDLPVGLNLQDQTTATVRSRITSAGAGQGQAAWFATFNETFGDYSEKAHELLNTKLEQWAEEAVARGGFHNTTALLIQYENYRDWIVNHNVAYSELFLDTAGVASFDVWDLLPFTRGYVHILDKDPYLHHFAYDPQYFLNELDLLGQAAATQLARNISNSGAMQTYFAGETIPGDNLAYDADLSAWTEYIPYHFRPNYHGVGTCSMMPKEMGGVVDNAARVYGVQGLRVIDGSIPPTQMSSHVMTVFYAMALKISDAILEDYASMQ

Regarding “Capture Antibody 2, an anti-Mouse α-Human IL-8 Monoclonal Antibody (for ICC, BD Pharmingen cat #550419), conjugated to Glucose Oxidase from Aspergillus niger (from UniProt P13006 23-605)”, the potential lay within 1 to 55 mV.
